# Experimental data published in PMC7933679.
# Biological target: Deinococcus radiodurans MazF (MazF-dr) (Deinococcus radiodurans)
# Assay: crystal structure; apo MazF-dr with N-terminal 6x His-tag, 5 mg/mL, sitting-drop vapor diffusion at 293 K; 0.2 M ammonium sulfate, 0.1 M Bis-Tris pH 5.5, 25% w/v PEG 3350; space group P4(3)2(1)2, dimer in the asymmetric unit; 1.3 Å
substance,measurement,value
Deinococcus radiodurans MazF (MazF-dr) (enzyme),stoichiometry N,2
